Experimental data published in US20120077731A1 (Ablynx, published 2012).

Columns and labels:
[1] = molecular target: T1, Cyno IL-6R (cynomolgus monkey, UniProt A0A2K5WN54 60-396); assay: Biacore T100, IL-6R captured by BN-12
T1 construct: also called cynomolgus monkey IL-6R; recombinant cyno sIL-6R
T1 sequence: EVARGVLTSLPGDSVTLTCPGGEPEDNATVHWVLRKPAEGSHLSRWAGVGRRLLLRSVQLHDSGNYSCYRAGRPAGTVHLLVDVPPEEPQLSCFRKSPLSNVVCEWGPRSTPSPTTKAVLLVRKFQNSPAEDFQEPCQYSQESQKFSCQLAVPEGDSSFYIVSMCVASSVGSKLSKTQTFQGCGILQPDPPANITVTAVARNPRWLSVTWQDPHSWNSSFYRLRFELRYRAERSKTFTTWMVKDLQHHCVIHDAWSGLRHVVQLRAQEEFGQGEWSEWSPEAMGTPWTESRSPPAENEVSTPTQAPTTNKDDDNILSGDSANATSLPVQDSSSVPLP

[2] = molecular target: T2, Human soluble IL-6R (human, UniProt P08887 20-358); assay: Biacore T100, IL-6R captured by BN-12
T2 construct: Soluble recombinant form; biotinylated in some assays; also called hIL-6R; human IL-6R
T2 sequence (looked up): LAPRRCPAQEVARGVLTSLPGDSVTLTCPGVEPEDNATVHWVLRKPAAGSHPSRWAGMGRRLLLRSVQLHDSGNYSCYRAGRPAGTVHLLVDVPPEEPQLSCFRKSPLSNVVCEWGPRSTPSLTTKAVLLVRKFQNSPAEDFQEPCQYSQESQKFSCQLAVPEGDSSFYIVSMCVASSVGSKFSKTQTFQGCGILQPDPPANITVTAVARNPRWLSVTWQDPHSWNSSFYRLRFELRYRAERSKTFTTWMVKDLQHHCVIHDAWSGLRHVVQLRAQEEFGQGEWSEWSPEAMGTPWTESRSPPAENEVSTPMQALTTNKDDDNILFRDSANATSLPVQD

[3] = molecular target: T2, Human soluble IL-6R; assay: Biacore T100, IL-6R captured via mAb BN-12
[4] = molecular target: T3, Human plasma sIL-6R (human, UniProt P08887 20-355, limits assumed); assay: plasma potency assay, human plasma, 42 nM IL6; blocked ligand IL-6
T3 construct: also called plasma-derived human IL-6R
T3 sequence (looked up): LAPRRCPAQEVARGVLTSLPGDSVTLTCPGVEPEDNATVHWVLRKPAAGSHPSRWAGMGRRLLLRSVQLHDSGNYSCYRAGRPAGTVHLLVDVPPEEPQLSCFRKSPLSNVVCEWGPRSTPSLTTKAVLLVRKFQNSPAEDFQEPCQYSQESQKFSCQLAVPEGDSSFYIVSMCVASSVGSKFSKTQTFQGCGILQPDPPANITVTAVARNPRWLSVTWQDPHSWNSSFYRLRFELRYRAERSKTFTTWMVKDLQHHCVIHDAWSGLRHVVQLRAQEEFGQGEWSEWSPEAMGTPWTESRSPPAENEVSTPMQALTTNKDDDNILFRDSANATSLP
Description: All 5 affinity matured Nanobodies and the sequence optimized Nanobody were also tested in a plasma potency assay. […] TMB was used as substrate.

[5] = molecular target: T4, Human membrane IL-6R on cells (human, UniProt P08887 20-468); assay: flow cytometry, CHO cells expressing human IL-6R, 4PL fit
T4 construct: whole, on cells; also called cell-surface expressed human IL-6R
T4 sequence (looked up): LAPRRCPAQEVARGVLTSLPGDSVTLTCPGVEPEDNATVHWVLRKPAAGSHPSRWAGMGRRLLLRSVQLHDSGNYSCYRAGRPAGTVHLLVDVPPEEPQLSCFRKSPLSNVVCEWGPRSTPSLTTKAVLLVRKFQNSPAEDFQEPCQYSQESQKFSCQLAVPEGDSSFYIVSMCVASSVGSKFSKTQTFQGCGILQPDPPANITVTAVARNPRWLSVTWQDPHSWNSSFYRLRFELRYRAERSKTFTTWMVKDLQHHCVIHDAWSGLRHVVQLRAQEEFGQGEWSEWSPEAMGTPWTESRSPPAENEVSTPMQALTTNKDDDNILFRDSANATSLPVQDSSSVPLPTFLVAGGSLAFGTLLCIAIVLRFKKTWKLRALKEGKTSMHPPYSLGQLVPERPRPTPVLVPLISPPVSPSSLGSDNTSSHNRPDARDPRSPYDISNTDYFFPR

[6] = molecular target: T5, Cyno plasma sIL-6R (cynomolgus monkey, UniProt A0A2K5WN54 60-396); assay: plasma potency ELISA, human against cyno plasma
T5 construct: also called cynomolgus sIL-6R
T5 sequence: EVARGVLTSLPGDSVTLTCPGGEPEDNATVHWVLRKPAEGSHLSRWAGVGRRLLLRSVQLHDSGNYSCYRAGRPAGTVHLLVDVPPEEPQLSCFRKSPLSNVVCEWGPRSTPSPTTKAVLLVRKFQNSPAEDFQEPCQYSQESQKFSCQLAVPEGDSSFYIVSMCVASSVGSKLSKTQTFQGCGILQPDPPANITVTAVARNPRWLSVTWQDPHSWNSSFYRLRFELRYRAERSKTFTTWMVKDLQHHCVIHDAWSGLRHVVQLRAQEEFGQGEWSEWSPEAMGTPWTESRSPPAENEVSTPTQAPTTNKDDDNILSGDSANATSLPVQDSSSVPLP

[7] = molecular target: T2, Human soluble IL-6R; assay: Biacore T100
[8] = molecular target: T6, OSM-R (UniProt Q99650 28-739, limits assumed); assay: competitive binding ELISA: IL6R20A11 (0.05 nM) pre-incubated with a series of the receptor; free IL6R20A11 captured on sIL-6R and detected via anti-His
T6 sequence (looked up): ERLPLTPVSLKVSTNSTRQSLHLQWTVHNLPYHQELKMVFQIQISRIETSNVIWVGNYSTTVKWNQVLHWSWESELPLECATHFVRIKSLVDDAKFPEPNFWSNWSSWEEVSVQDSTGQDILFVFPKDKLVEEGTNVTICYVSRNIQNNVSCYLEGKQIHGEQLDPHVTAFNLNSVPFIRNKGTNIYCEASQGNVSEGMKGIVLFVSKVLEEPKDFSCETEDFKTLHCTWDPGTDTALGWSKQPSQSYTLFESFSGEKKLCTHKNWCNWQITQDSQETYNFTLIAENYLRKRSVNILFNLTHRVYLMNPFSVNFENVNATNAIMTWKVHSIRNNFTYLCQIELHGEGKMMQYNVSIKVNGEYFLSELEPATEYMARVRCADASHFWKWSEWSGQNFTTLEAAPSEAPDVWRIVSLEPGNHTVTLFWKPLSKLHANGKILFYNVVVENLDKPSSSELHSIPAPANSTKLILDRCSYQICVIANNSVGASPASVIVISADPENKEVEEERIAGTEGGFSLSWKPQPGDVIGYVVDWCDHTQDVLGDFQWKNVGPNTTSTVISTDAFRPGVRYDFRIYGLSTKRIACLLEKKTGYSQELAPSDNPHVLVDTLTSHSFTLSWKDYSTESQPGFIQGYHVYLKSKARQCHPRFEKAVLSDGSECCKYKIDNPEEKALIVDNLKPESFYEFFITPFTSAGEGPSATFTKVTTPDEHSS

kon [1]: 1e+06 M⁻¹ s⁻¹
kon [2]: 1e+06 M⁻¹ s⁻¹
kon [3]: 1e+06 M⁻¹ s⁻¹
IC50 (read off the curve) [4]: ~0.4 nM
EC50 [5]: 1.4 nM
Ratio (human/cyno) of IC50 [6]: 1.69
Kd [7]: 0.019 nM
binding result [8]: no binding (tested: 5 nM (log conc 0.7))
B1: PMP20A11 (VHH)
VHH: EVQLVESGGGLVQPGGSLRLSCAASGSVFKINVMAWYRQAPGKGRELVAGIISGGSTSYADSVKGRFTISRDNAKNTLYLQMNSLRPEDTAVYYCAFITTESDYDLGRRYWGQGTLVTVSS
notes: also called IL6R20A11; IL6R300; not shown: c-myc and (His)6 tags
